Changes are numbered by the printed parent chain.

In series [1] the target is T1, RIG-I wild-type (Homo sapiens, UniProt O95786 SEQ:1-925).
T1 chain: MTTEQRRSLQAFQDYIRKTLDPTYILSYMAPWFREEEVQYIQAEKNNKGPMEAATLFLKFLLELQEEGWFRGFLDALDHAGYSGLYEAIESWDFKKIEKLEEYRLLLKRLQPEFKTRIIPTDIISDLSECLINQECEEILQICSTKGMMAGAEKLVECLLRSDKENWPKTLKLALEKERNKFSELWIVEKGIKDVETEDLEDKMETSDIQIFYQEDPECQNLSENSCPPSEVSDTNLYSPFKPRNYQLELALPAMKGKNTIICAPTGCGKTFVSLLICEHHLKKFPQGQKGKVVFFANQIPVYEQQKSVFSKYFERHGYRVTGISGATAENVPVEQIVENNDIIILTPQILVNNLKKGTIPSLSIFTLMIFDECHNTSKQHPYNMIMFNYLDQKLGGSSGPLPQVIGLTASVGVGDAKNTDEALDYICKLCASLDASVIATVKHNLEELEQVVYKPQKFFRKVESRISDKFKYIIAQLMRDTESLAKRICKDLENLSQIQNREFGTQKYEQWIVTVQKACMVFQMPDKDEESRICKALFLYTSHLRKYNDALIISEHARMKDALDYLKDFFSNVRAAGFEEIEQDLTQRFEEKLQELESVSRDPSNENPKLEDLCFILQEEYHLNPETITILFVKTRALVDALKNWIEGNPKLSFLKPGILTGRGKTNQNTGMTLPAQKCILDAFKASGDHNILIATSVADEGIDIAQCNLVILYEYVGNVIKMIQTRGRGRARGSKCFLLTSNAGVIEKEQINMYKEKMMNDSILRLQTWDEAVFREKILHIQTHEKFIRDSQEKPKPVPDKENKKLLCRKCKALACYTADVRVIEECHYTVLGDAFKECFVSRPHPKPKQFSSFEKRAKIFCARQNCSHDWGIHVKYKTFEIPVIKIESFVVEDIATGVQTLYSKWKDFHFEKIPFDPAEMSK
The experiment in a line: EMSA; forms the slowly migrating complex with dsRNA lacking 5'-triphosphate; 1.5 mM MgCl2, room temperature. The settings on record: tags: Flag; purified from transfected HEK293T; label: 32P at 5' end of bottom strand; blunt 19 bp duplex lacking 5'-triphosphate.

The target of another series is T2, RIG-I-K270A (Homo sapiens, UniProt O95786 SEQ:1-925, K270A).
T2 sequence: T1 chain with K270A
In words: EMSA; affinity similar to WT; 1.5 mM MgCl2, room temperature. The settings on record: tags: Flag; purified from transfected HEK293T; label: 32P at 5' end of bottom strand; blunt 19 bp duplex.

For another series, the target named is T3, RIG-I-N495D (Homo sapiens, UniProt O95786 SEQ:1-925, N495D).
T3 sequence: T1 chain with N495D
The experiment in a line: EMSA; affinity comparable to WT; 1.5 mM MgCl2, room temperature. The conditions noted are these: tags: Flag; purified from transfected HEK293T; label: 32P at 5' end of bottom strand; blunt 19 bp duplex.

For series [2], the target named is T1, RIG-I wild-type. In words: EMSA; two RIG-I:RNA complexes with increasing RIG-I; 20 mM Tris-HCl pH 8.0, 1.5 mM MgCl2, 1.5 mM DTT, room temperature. The settings on record: tags: Flag; purified from transfected HEK293T; label: 32P at 5' end of bottom strand; blunt 19 bp duplex.

B1: control dsRNA 19mer (dsRNA)
RNA 1: GCAUGCGACCUCUGUUUGA
RNA 2: UCAAACAGAGGUCGCAUGC
With B1, the binding result with RIG-I wild-type [1] is on record as “binds”.

B2: 5'-ppp-dsRNA 19mer (dsRNA)
RNA 1: GCAUGCGACCUCUGUUUGA
RNA 2: UCAAACAGAGGUCGCAUGC
modifications: 5'-triphosphate on top strand
As to B2, the binding result with RIG-I-K270A, with RIG-I-N495D and with RIG-I wild-type [2] was “binds” throughout.

The values are drawn from US20180193430, “COMPOSITIONS AND METHODS TO INHIBIT VIRAL REPLICATION” (published 2018).
